Measured values: publication PMC9352680, “A comprehensive thermodynamic model for RNA binding by the Saccharomyces cerevisiae Pumilio protein PUF4”
Residue numbers refer to the chain shown, from its start. Numbers in names are those of the source.

T1: PUF4 RNA-binding domain (Saccharomyces cerevisiae, UniProt P25339 537-888)
T1 sequence: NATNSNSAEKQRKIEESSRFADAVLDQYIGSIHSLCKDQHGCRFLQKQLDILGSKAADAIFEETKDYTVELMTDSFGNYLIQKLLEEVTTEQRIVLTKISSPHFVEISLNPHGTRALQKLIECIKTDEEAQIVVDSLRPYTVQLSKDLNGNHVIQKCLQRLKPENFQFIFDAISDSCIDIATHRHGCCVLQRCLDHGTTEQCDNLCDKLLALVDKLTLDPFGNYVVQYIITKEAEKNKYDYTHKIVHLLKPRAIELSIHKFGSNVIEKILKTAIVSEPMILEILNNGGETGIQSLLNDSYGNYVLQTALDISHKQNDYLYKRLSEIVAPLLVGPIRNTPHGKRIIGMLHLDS

B1: Ib_S2_P3E.1_K3.1_C3.1_H3.1_[T1G]_A3.1_F3.1_[A8G]_T3.1 (ssRNA)
RNA: UUUGAUUAAUAUGAUAUCGUUCUUUCUGGUAUAUGUUCUUUCUCGAUAUCAUAUUAAUCUUU
B2: Ib_S2_P3E.1_K3.1_C3.1_H3.1_[G2C]_A3.1_F3.1_[A8C]_T3.1 (ssRNA)
RNA: B1 RNA with G28U, G29C, G35C
B3: Ia_S2_P3E.1_K3.1_C3.1_H3.1_[T1A]_A3.1_F3.1_T3.1 (ssRNA)
RNA: B1 RNA with G28A, G35A
B4: Ib_S2_P3E.1_K3.1_C3.1_H3.1_[T1C]_A3.1_F3.1_[A8G]_T3.1 (ssRNA)
RNA: B1 RNA with G28C
B5: Ib_S2_P3E.1_K3.1_C3.1_H3.1_[T1G]_A3.1_F3.1_[A8T]_T3.1 (ssRNA)
RNA: B1 RNA with G35U
B6: Ib_S2_P3E.1_K3.1_C3.1_H3.1_[T1A]_A3.1_F3.1_[A8G]_T3.1 (ssRNA)
RNA: B1 RNA with G28A

These binders were tested against T1, PUF4 RNA-binding domain (assay: Mg; RNA-MaP; 20 mM Na-HEPES pH 7.4, 30 mM KOAc, 0.75 mM MgCl2, 0.1% Tween-20, 5% glycerol, 0.1 mg/mL BSA, 2 mM DTT; 25 C; 0.0125-409.6 nM protein). Settings: tags: N-His6-TEV cleaved; C-SNAP kept, Cy3B-labelled; label: tethered on chip by stalled RNA polymerase.

Binder | Kd
UCUCUUUGUAUUUUUAUUAUCUCUU (ssRNA) [Ie_S1_P5E.1_K5.1_C5.1_H5.1_A5.1_[+6TTT]_F5.1_T5.1] | 4.32 nM
UCUCUUUGUACCUUUAUUAUCUCUU (ssRNA) [Ie_S1_P5E.1_K5.1_C5.1_H5.1_[+4CCT]_A5.1_F5.1_T5.1] | 6.7 nM
UCUCUUUCCUGUAUUAUUAUCUCUU (ssRNA) [Ie_S1_P5E.1_K5.1_C5.1_H5.1_[+1CCT]_A5.1_F5.1_T5.1] | 7.97 nM
UCUCUUUGCUCUUAUUAUUAUCUCUU (ssRNA) [Ie_S1_P5E.1_K5.1_C5.1_H5.1_[+2CTCT]_A5.1_F5.1_T5.1] | > 2300 nM
UCUCUUUGUAUUCUUAUUAUCUCUU (ssRNA) [Ie_S1_P5E.1_K5.1_C5.1_H5.1_A5.1_[+5TCT]_F5.1_T5.1] | 7.13 nM
UCUCUUUGUUCUCUAUUAUUAUCUCUU (ssRNA) [Ie_S1_P5E.1_K5.1_C5.1_H5.1_[+3TCTCT]_A5.1_F5.1_T5.1] | 85.1 nM
UCUCUUUUGUAUUAUUAUCUCUU (ssRNA) [Ie_S1_P5E.1_K5.1_C5.1_H5.1_[+1T]_A5.1_F5.1_T5.1] | 5.92 nM
UCUCUUUUCUCUGUAUUAUUAUCUCUU (ssRNA) [Ie_S1_P5E.1_K5.1_C5.1_H5.1_[+1TCTCT]_A5.1_F5.1_T5.1] | 7.43 nM
UCUCUUUGUUUCAUUAUUAUCUCUU (ssRNA) [Ie_S1_P5E.1_K5.1_C5.1_H5.1_[+3TTC]_A5.1_F5.1_T5.1] | 22.2 nM
UCUCUUUGUACUCUUUAUUAUCUCUU (ssRNA) [Ie_S1_P5E.1_K5.1_C5.1_H5.1_[+4CTCT]_A5.1_F5.1_T5.1] | 13.1 nM
UCUCUUUGUCUCUUAUUAUUAUCUCUU (ssRNA) [Ie_S1_P5E.1_K5.1_C5.1_H5.1_[+2TCTCT]_A5.1_F5.1_T5.1] | 332 nM
UCUCUUUGCUCUAUUAUUAUCUCUU (ssRNA) [Ie_S1_P5E.1_K5.1_C5.1_H5.1_[+2CTC]_A5.1_F5.1_T5.1] | > 2300 nM
UCUCUUUCUCUCGUAUUAUUAUCUCUU (ssRNA) [Ie_S1_P5E.1_K5.1_C5.1_H5.1_[+1CTCTC]_A5.1_F5.1_T5.1] | 1240 nM
UCUCUUUGUCCUCAUUAUUAUCUCUU (ssRNA) [Ie_S1_P5E.1_K5.1_C5.1_H5.1_[+3CCTC]_A5.1_F5.1_T5.1] | 738 nM
UCUCUUUCCCUGUAUUAUUAUCUCUU (ssRNA) [Ie_S1_P5E.1_K5.1_C5.1_H5.1_[+1CCCT]_A5.1_F5.1_T5.1] | 5.88 nM
UCUCUUUUUGUAUUAUUAUCUCUU (ssRNA) [Ie_S1_P5E.1_K5.1_C5.1_H5.1_[+1TT]_A5.1_F5.1_T5.1] | 7.17 nM
UCUCUUUGUCAUUAUUAUCUCUU (ssRNA) [Ie_S1_P5E.1_K5.1_C5.1_H5.1_[+3C]_A5.1_F5.1_T5.1] | 99.4 nM
UCUCUUUGUCCUAUUAUUAUCUCUU (ssRNA) [Ie_S1_P5E.1_K5.1_C5.1_H5.1_[+3CCT]_A5.1_F5.1_T5.1] | 110 nM
UCUCUUUCCUCGUAUUAUUAUCUCUU (ssRNA) [Ie_S1_P5E.1_K5.1_C5.1_H5.1_[+1CCTC]_A5.1_F5.1_T5.1] | 1350 nM
UCUCUUUUCGUAUUAUUAUCUCUU (ssRNA) [Ie_S1_P5E.1_K5.1_C5.1_H5.1_[+1TC]_A5.1_F5.1_T5.1] | 1240 nM
B1 | 1140 nM
B2 | > 2300 nM
B3 | 931 nM
B4 | > 2300 nM
B5 | 955 nM
B6 | > 2300 nM
UCUCUUUGUCCCUUAUUAUUAUCUCUU (ssRNA) [Ie_S1_P5E.1_K5.1_C5.1_H5.1_[+3CCCTT]_A5.1_F5.1_T5.1] | 884 nM
UCUCUUUCUGUAUUAUUAUCUCUU (ssRNA) [Ie_S1_P5E.1_K5.1_C5.1_H5.1_[+1CT]_A5.1_F5.1_T5.1] | 3.96 nM
UCUCUUUGUUUAUUAUUAUCUCUU (ssRNA) [Ie_S1_P5E.1_K5.1_C5.1_H5.1_[+2TT]_A5.1_F5.1_T5.1] | 8.58 nM
UCUCUUUGUCUUAUUAUUAUCUCUU (ssRNA) [Ie_S1_P5E.1_K5.1_C5.1_H5.1_[+3CTT]_A5.1_F5.1_T5.1] | 41.9 nM
